Results taken from patent US20040161739A1.

How the values were obtained:
[1] = biological target: active human CCR5 chemokine receptor (human) (UniProt P51681); assay: cell-based or functional assay
[2] = biological target: IL-8A interleukin receptor (UniProt P25024); assay: cell-based or functional assay

Sequence of UniProt P51681 (P51681 whole entry): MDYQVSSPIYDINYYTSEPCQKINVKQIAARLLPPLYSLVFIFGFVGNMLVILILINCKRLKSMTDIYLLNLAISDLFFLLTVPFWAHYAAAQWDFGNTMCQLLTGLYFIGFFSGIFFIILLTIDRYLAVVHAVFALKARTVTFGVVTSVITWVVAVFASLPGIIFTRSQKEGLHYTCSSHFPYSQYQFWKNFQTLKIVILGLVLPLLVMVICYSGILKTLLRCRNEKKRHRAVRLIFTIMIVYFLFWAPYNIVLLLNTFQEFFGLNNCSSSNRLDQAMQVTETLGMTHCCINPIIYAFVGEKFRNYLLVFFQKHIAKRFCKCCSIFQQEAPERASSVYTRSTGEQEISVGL

Substance | EC50 of the acidification response (microphysiometer) [1] | acidification rate at 30 nM, percent of baseline level (% of baseline level) [1] | increase in metabolic activity (microphysiometer) [2]
recombinant human MIP-1α (Macrophage Inflammatory Protein 1 α) (from UniProt P10147 27-92) (ligand) | 3 nM | 156 | –
recombinant human IL-8 (Interleukin 8) (from UniProt P10145 28-99) (ligand) | – | – | 160%
